Results from patent US20190374606A1.
Numbering of substitutions follows the chain as printed.

B1: Wild type NT-3 (Neurotrophin 3, mature form) (ligand)
chain: YAEHKSHRGEYSVCDSESLWVTDKSSAIDIRGHQVTVLGEIKTGNSPVKQYFYETRCKEARPVKNGCRGIDDKHWNSQCKTSQTYVRALTSENNKLVGWRWIRIDTSCVCALSRKIGRT
B2: Biotin-NT-3 (wild type NT-3 covalently linked to biotin) (ligand)
chain: B1 chain
modifications: biotin, site not given
B3: NT-3 mutant (SEQ ID NO: 23) (ligand)
chain: B1 chain with D15A, R114A, K115A

Assays:
TrkC (NIH-TrkC cells) [1] = assay: cell-based or functional assay
TrkC (NIH-TrkC cells) [2] = assay: flow cytometry competition on NIH-TrkC cells; 20 nM Biotin-NT3 tracer, 200 nM unlabeled competitor; value is the Biotin-NT3 signal remaining
TrkC (NIH-TrkC cells) [3] = assay: flow cytometry competition on NIH-TrkC cells; 20 nM Biotin-NT3 tracer, 200 nM unlabeled competitor; value is the Biotin-NT3 binding remaining
TrkA (NIH-TrkA cells) [4] = assay: flow cytometry competition on NIH-TrkA cells; 20 nM Biotin-NT3 tracer, 3-fold excess unlabeled competitor; value is the Biotin-NT3 signal remaining
TrkA (NIH-TrkA cells) [5] = assay: flow cytometry competition on NIH-TrkA cells; 20 nM Biotin-NT3 tracer, 3-fold excess unlabeled competitor; value is the Biotin-NT3 binding remaining
p75 (NIH-p75 cells) [6] = assay: flow cytometry (fluorescent avidin) on NIH-p75 cells; 20 nM Biotin-NT3, no competitor
TrkC (NIH-TrkC cells) [7] = assay: flow cytometry (fluorescent avidin) on NIH-TrkC cells; 20 nM Biotin-NT3, no competitor
TrkA (NIH-TrkA cells) [8] = assay: flow cytometry (fluorescent avidin) on NIH-TrkA cells; 20 nM Biotin-NT3, no competitor
p75 (NIH-p75 cells) [9] = assay: flow cytometry competition on NIH-p75 cells; 20 nM Biotin-NT3 tracer, 200 nM unlabeled competitor; value is the Biotin-NT3 signal remaining
p75 (NIH-p75 cells) [10] = assay: flow cytometry competition on NIH-p75 cells; 20 nM Biotin-NT3 tracer, 200 nM unlabeled competitor; value is the Biotin-NT3 binding remaining

Row | Binder | % survival at 0.1 nM, TrkC-expressing cells in serum free media (TrkC (NIH-TrkC cells) [1]) [%] | NIH-TrkC MCF (TrkC (NIH-TrkC cells) [2]) | % of maximal binding to TrkC (TrkC (NIH-TrkC cells) [3]) [%] | NIH-TrkA MCF (TrkA (NIH-TrkA cells) [4]) | % of maximal binding to TrkA (TrkA (NIH-TrkA cells) [5]) [%] | NIH-p75 MCF (p75 (NIH-p75 cells) [6]) | NIH-TrkC MCF (TrkC (NIH-TrkC cells) [7]) | NIH-TrkA MCF (TrkA (NIH-TrkA cells) [8]) | NIH-p75 MCF (p75 (NIH-p75 cells) [9]) | % of maximal binding to p75 (p75 (NIH-p75 cells) [10]) [%]
1 | B1 | 34 | 25 | 18 | 20 | 36 | – | – | – | – | –
2 | B2 | – | – | – | – | – | 76 | 93 | 38 | – | –
3 | B3 | – | – | 13 | 16 | – | – | – | – | 69 | 89
